# Laboratory results from the DeepSol protein solubility set.
# Experiment: soluble on expression in E. coli; label from the status in PepcDB or PDB records
row,Sequence,soluble on expression in E. coli
1,MGSDKIHHHHHHMSDVKGKNMTKKKPVLKRFNYRLNKLHVKNLKGIKDFTLNFEKDKLVTGIVGINGSGKSTLIHALACAFKPIGKATSKDFNRLSHFFTPNKDASWEGSEFEIEFEFDELTIKPNSEPTKKLINHTEVYSKKQGKKVSRWLPIYGRRHERESAYIGLHDLATLSEDKNAGRYKEYETEDLAHEASDKIKEDLVYILGRNYNRLTTCLVKQKDKVHTLFGLVFNGVEYSEHSMGAGEKRLLTILSALHNPKLAKGGLLLIDEIDVLLHGMAFKRLIERIIKRANENKIEVIFSTHRETIIDFKNDLLIYGVLNTGKGVIPMPHTHPQVMQQLTGVRTVPIEIYVEDDLATSVIETLLYQKHATHYVNITKFGTWSNAFAILAGKILMDSDISETLCVLDGDVCNTIEERTSECQRHLNGDDKNEHRQSMLNHIVEFKLANIAPQGSGGSPEYNIKIMFESIESDDPRVVELQRYSREMQGLEDWHVYFDILAETSGIRTARDKVLEAISETGQWNDYIVEISNWLDEKLKIYLPVRVQEEENLVTV,not soluble
2,MSLAAGFAPLADIPVGPDYVIGPGDRIILNLWGSAEGTHELEVNRSGEIVLPRVGSVKVWGITFERLPEVLKTHLSKIYKNFDLNVTMGKLRVIKVYVVGEVKMPGDYNLSPLSTLINALAASGGPLKTGTLRNIKIKRGGKVVETVDLYDFFLKGDKGKDIRLQPGDTIFVPVIGRVAGIAGNVKRPAIYELKDEKNLGDLVELAEGFLPTGYLQRVQITRVDAHDKRMVADFNIDPKGAGEGHHHHHH,not soluble
3,MRGVVKELNDDGFGVLGNVLVPFSAPGDEVEILKIEKVKKAKIASKWKLIKSSPLRVGARCKVFGRCGGCSLQHLSYDYQLEFKGERIRRLLGVDVEVIPSPRIFGHRNRIDLAVTVEGIGFRERGKWWKIVDIQECPVFGKTSRKAIERLREFIEEERISVWNVKKDEGFLRYMVLREGKFTGEVMVNLVTKEGKLPDPSKYFDFATSIYWSVNRTKSDVSYGEVESVWGREFITEKLDDVIYLIHPNSFFQTNSYQAVNLVKKVSELVEGERVLDMYSGVGTFGIYLAKRGFKVVGFDSNEFAIEMARKNAKINKVDAVFDVATDREVEVNGFDTVIVDPPRVGLHPKLIKKLNREKPEVIVYVSCNPKTFARDIEKLEYKIDEIVALDMFPHTPHLELVAKLIV,soluble
4,MLIRTEAPADILTVDRLVRSAFDTEAEAKLVMSLRENSHLTLALVACSDDGEVIGHCLFSPVTLNGDDLNWQGLAPLCVKKEHQKQGIAEALVKEGLEMLTELGYPVVVVLGDSNYYQRFGFESATNYDMHSKWEVPEGAFMIKACSSEFLEGRSGLIEYCPEFDVL,not soluble
5,MAGDPMATLTRLFIHPVKSMRGIGLTHALADVSGLAFDRIFMITEPDGTFITARQFPQMVRFTPSPVHDGLHLTAPDGSSAYVRFADFATQDAPTEVWGTHFTARIAPDAINKWLSGFFSREVQLRWVGPQMTRRVKRHNTVPLSFADGYPYLLANEASLRDLQQRCPASVKMEQFRPNLVVSGASAWEEDSWKVIRIGDVVFDVVKPCSRCIFTTVSPEKGQKHPAGEPLKTLQSFRTAQDNGDVDFGQNLIARNSGVIRVGDEVEILATAPAKIYGAAAADDTANITQQPDANVDIDWQGQAFRGNNQQVLLEQLENQGIRIPYSCRAGICGSCRVQLLEGEVTPLKKSAMGDDGTILCCSCVPKTALKLTRLEHHHHHH,not soluble
6,GLLDLKSMIEKVTGKNALTNYGFYGCYCGWGGRGTPKDGTDWCCWAHDHCYGRLEEKGCNIRTQSYKYRFAWGVVTCEPGPFCHVNLCACDRKLVYCLKRNLRSYNPQYQYFPNILCS,soluble
7,MNDELKNKSGKVKVMYVRSDDDSDKRTHNPRTGKGGGRPAKSRTDGGRRPARDERNNQSRDRKHETSPWRTVSRAPGDETPEKVDHGGISGKSFIDPEVLRRQRAEETRVYGENACQALFQSRPDAIVRAWFIQSVTPRFKEALRWMAANRKAYHVVDEAELAKASGTEHHGGVCFLIKKRNGTTVKQWVKQAADQDCVLALEDVANPHNLGGMMRSCAHFGVKGVVVQDAALLESGAAIRTAEGGAEHVQPITGESIVDVLDDFRQAGYTVVTTSSDRGQALFSTTLPEKMVLVLGREYDYLPEAAREPDDLCVKINGTGNVESLNVSVATGVLLAEWWRQNKA,not soluble
8,TDKTFFDAKMEEQAKRHAQHNNTESNLEPDIKNAPGGIRDMNQIGWIAKRHFRVNRIYDLVHLGFITEYELKVLEEAESFLWEIRHHLHLLSKRDENRLLFDHQREIAAKFGYTRAEGQPVNFAVEQFMKRYYRTAQQVSTLNEMLLAYFNESVITPRLPNYERKIEEINENFKLVDGKLAVQHHKVFSENPSAILELFYLLANHPEIEGIRARTLRLLIMAAKRID,not soluble
9,SNAMSVQLVKGVNLHVIPTEKYKTVRLLVRFNTRLNHETITKRTLLSSLMETNSLNYPNQVKLSERLAELYGASFGIGVSKKGNQHWFNISMNIVNDHYLQDSQVLAEAVDFLKEIIFAPNIQAGQFEAETFQREKENLKAYLESIVEDKQTYASLALQSVYFNQSEDQKIPSFGTVAALAEETAASLAAYYQKMLAEDQVDIFVLGDVNEAELVPLFKQLPFTPREEGKAAIFYNQPIRNVIEERTEREVLAQSKLNLAYNTDIYYGDSYYFALQVFNGIFGGFPHSKLFMNVREKEHLAYYASSSIDTFRGFMTVQTGIDGKNRNQVLRLISTELENIRLGKIRELEIEQTKAMLKNQYILALDNAGAWLEKEYLNELMPQTMLTAEEWIARINAVTIPEIQEVAKRLELQAIFFLEGETEND,soluble
10,MGSDKIHHHHHHMTTAQHTVEKIGGTSMSNYEAVRDNIIIGKRKKSDLYQRIFVVSAYGGVTNELLEHKKTGEPGVYALFADAESDWAWGDDLTKLIQLLTDINGELFADPMLKQQADQFITDRIEGVRGCLIDLQRLCSYGQFQLEEHLLTVREMLAGIGEAHSAFNTALKLQQEGINARFVDLTGWRDSELLPLDEKLKQAFDAIDLSRELPIVTGYAQCKEGLMRTFDRGYSEMTFSRTAVITNAREAIIHKEYHLSSADPNIVGEDKVVPLGRTNYDVADQLANLGMEAIHPRAGKGLRQNEIPLRVMNTFEPEHTGTLITGDYVSEKPQVEIVAGAKGVFAIEVFDQDMQGEPGSDRRILDVLSRFKVRFMSKDTNANTITHYVDTTLKHVKRVVKALEEEFPNAEISTRKVALVSAIGSDMKVPGILARSVKSLADNDISVLAIHQCMRQVDIQFVVDEDKYDQAIVALHGALIEPHNHEYAIVAASTTAG,not soluble
11,GPGSMEQGAFNDVAKKALEFRNRYYKMLDDPQDRLNVAGLYAPDVPMVCEWNGHPLSTVDDVRNYISALPKTSHQVDMVDAQPLPDNQDGDSFLLTVHGIVTYNDEHRREFYQRMVIRRFEQRYYILNDYYRWLSERSQ,soluble
12,MGSDKIHHHHHHMKKLFLVLAVLSLVLYGCLRTPPVVKDMVTTDGSLSDWGSKIKEDAADDSKWGADNELLKAGLLFDGANIYIAGEYVIGGDGNVNVFLVLIDLVGVTGAQTVSYTGLNDGNRNFTNPNGDIDLIVEVNQSNEYKVWRVSQDGSLTDITDQVTAQFGTGSTIAELKIPISEQVNQVKAVFAISGGTGGGNQWVGDFYPNQPDHDSAENGGIPQPAPVVNFVVCDKEGNVSEEINQTSEPEQPTESVIVVDGDLSDFGTPVATSTNPGGGNGANLYRLYVTYDATYLYIGFDTQNSGSWDVAYGIGIDTKPSGYTGDSDAWGRKISFGADYAVDYEIYFWWAGGSGLDSNNFCEWNGLDWNYRSIADAGGTFDYTGDTSSGLQTMEIAIPWSAIGGKQDVALIVWITGGSGSAVDSIPDDDSTIDNADEWNDSDTFTNLYLLQVN,not soluble
13,KKDFTWNATVNFSSNQSKVLSLGAETQMLEGRPVGSASGSENVLIKKGYPLGLFYGLQMEGIRSNWHSDYNGIGSADSPWWYATEREMPYGFPSFADTNGDGKVDMSDRVVIGDVNPVFIGGLNTRLRWKFIELAMDFSWSYGNDIINGNVYNLMNNGDIRNKSAVYYKDAWFANNPTGTFTGPGAIDWSGYMWAASNSEMVEDGSFLKMNNLAVTFRMPKNILKAWKIKDLALTYTINNVFCLTNYSGYDPEVRSGSSVNNRILPGVDISAYPYARSHIFSLNFKY,not soluble
14,MKPKTLSPILTAKGVRLAIAVGRFNERVTKLLLEGALEAYARLGGDPAEVLVAWVPGSFELPLVAKRLAQRPDVDAVVALGAVIRGETPHFEYVAGQAASGLMQAMLQTEKPIVFGVLTTNTPEEAQERAGGKAGNKGAEAVFTAIEMVRLLEAISR,soluble
15,SVCKGVSGNPAKGEVFLYKHVNFQGDSWKVTGNVYDFRSVSGLNDVVSSVKVGPNTKAFIFKDDRFNGNFIRLEESSQVTDLTTRNLNDAISSMIVATFESA,soluble
16,REGMNTIARNLGITCSADIGLISIEYTCFSNNLSYTQVLSLPKTGVNTDKLDQMERFVKEFGNDCSSLTIRQIHNKLDTVQRK,not soluble
17,MGSDKIHHHHHHMAKIKHGFSGQRLIVYPFYVIEQALNNPLVADLVVHSMGYFPKAESHYIDRASGCGEYLLIYCTKGEGWYVLDGKRYVVPENHFFILPAEKPHQYGSSEHDPWYIYWAHFKGKKAKYISDQLQGVIPIDMDDNSRIGDRIAFFDELLNVLESGTDEATVNYVNLSFNHLIASFLYVKTYREAKFSKSKAENTFFISLATHFMTENLENKLTLKELASHFGYSESYMYRLFFKETGYAPMNYFLHMKIDRACQLLLHTNMKINQVALKLGFDDPYYFSRIFKKIVGTSPKDYRHSLPK,not soluble
18,MFAELIRAGLQALIEAEATEAIGAGRYERSDGRIVHRNGHRPKTVSTTAGDIEVQIPKLRAGSFFPSLLERRRRIDKALHAVIMEAYVHGVSTRSVDDLVAAMGVQAGVSKSEVSRICAGLDTEIEAFRTRSLTHTEFPYVFCDATFCKVRVGAHVVSQALVVATGVSIDGTREVLGTAVGDSESYEFWREFLASLKARGLTGVHLVISDAHAGLKAAVAQQFSGASWQRCRVHFMRNLYTAVAAKHAPAVTVAVKTIFAHTDPEEVGAQWDRVADPLCQP,soluble
19,MYDYSILPNRIILCVDLRSFYASVSCIKMGLDPMHTKLAVVGDVNRNGSIVLAATPPLKALGVKKMARLYEIPRRKDILVVNPIMSTYIKCSNYITKLALQYVPIEDFHQYSIDEFFMDITDSIHLFAQDPYEFAMKFKREIYDHTRIECTIGIAPNPLMSKVALDIEAKKNKDGIAFWQYEDIPTKLWSIRPLNKFWGISYKTEEKLNRKGIYSIGDLANYPLKYLKQSFGKIGEELHLHSHGIDFSRISEKYVPATTSIGKSQILMRDYTIEEFPIILLEHIEEVCYRLRRQTKLAQTIHFSVGYSKSYTGGIRKTHTLNRPTNLTMDIYHICTYFLHQQYTGEPIRSINISLTNLIQEGEEQISLFDNVTKREQEMKLTKVMDEIRTKFGKNSILRGISYTHSATARHRNTLIGLEHHHHHH,not soluble
20,IEKNQIDMANGQELLISESLAVSQATTTFIDQLRILAPFGTDNTVPTFVFKEITPTQIRQIGADNAHLKFQMNQEGAQLDAIAFQMGPQADELAQGTADVAGQLSINEWNGRKKPQ,not soluble
21,MGSDKIHHHHHHQPPFPAPPAVRDIDCLEQDLMVYARALPQPDAPLLTLQDQERQTGFFLRRFFAAWDMRAPSMPRHTMFADLRATLDGKGWGANLLPVPPARTESLWQRCRTGEYPSLAVPAIITGNTSLRMAPDDEPFFRDPARAGEGYPFDYFQYSALWAGMPVFVVHASSDGGWLLCETPLAAGWVRARDVAYVDSGFMNAYRTGMYAAVVADDTPLRTAEGRWVLTAHTGAVFPVDKADAAGLVLRVPVRGADGGAGIRLVHVSYGAAARMPLPLTPVAVAMVGNGMMRQPYGWGGLLENRDCSAAMHDLFAPFGIWLPRNSSQQARAGALVSLEEMTPPQREAHILEQGVPFFSFIWMRGHIGLYLGPDRQDCAAGKPLMFHNVWGIRTGGGRAPEGRLVIGRAVVTTLHAGEEYPQVRKNWMLDRIRGLTLLPPQVP,not soluble
